The values below come from US20250289897A1, “LEPTIN RECEPTOR AGONISTIC ANTIBODY AS MONO OR COMBO THERAPIES TO TREAT OBESITY” (ELI LILLY AND COMPANY, priority 2024, published 2025).

The target in test [1] is T1, human LEPR (Homo sapiens, UniProt P48357).
T1 construct: introducing DNA plasmids encoding full-length LEPR of different species and STAT3-luciferase reporter gene into HEK293 cells; expressed in transfected cells; host or cells: HEK293 (HEK293-STAT3Luc-hLepR1)
T1 sequence (P48357 22-1165): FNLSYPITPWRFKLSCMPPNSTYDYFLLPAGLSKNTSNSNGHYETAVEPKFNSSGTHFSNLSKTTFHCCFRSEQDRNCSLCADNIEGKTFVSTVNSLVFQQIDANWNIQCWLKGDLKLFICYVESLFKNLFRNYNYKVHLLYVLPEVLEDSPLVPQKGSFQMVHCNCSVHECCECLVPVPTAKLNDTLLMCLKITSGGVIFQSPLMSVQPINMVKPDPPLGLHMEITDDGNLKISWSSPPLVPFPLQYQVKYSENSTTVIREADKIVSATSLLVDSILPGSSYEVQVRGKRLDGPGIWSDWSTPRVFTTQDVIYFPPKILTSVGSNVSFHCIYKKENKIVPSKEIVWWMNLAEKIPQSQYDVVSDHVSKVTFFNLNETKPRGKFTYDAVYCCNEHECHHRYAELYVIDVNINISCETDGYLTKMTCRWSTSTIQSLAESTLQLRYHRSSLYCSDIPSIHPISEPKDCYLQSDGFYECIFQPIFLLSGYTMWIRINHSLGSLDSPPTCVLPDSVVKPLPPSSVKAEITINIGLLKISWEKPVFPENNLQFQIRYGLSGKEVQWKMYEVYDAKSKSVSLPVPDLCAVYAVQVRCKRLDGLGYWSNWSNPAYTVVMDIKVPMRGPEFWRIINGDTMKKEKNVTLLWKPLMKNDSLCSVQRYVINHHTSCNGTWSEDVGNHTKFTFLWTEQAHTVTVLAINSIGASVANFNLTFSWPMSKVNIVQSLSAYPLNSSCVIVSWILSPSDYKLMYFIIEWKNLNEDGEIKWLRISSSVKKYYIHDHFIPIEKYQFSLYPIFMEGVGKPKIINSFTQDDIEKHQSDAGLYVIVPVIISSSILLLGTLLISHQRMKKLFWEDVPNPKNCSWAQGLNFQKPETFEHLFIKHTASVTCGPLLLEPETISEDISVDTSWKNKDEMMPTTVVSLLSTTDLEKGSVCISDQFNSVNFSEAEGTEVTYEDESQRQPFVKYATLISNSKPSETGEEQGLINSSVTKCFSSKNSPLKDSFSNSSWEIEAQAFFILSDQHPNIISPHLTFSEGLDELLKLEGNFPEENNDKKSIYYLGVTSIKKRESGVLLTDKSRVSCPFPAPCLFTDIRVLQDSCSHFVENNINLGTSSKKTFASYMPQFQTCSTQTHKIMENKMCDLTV
The test can be described thus: STAT3-luciferase reporter assay in HEK293-STAT3Luc-hLepR1 cells. It counts as cell-based. The text has this:
(§1) LEPR is a cell surface single-pass transmembrane receptor. Activation of LEPR leads to phosphorylation of intracellular STAT3 (pSTAT3) and subsequent target gene transcription. To measure LEPR activation by anti-LEPR antibodies in the present disclosure, five independent STAT-luciferase reporter cell lines were established by introducing DNA plasmids encoding full-length LEPR of different species and STAT3-luciferase reporter gene into HEK293 cells (Table 4). […]
(§2) Before plating the cells for luciferase assays, the poly-D-Lysine coated 96-well plates (Corning Inc, #354651) were rinsed once with phosphate buffered solution (PBS). […] Cell lysing and One-Glo luciferase substrate solution (Promega, #E6120) were then added to each well, and relative luciferase units (RLUs) were measured on a ClarioStar plate reader. For each reporter cell line, positive control LEPR activation was calculated as the average RLUs stimulated by 20 nM recombinant human leptin protein (SEQ ID NO:27) minus the average RLUs of unstimulated cells and was set as maximum LEPR activation (100%). […]
For orientation: In a reporter assay the amount or activity of a reporter protein is the signal.

The subject of another test is cyno-LEPR. Nature of the test: STAT3-luciferase reporter assay in HEK293-STAT3Luc-cmLepR2 cells. It counts as cell-based, Macaca fascicularis.
Text: as §1, §2

For test [2], the target named is T1, human LEPR. Nature of the test: pERK induction (AlphaLISA p-ERK1/2) in HEK293-STAT3Luc-hLepR1 cells. It counts as cell-based. Here is the method: Antibodies were tested for the ability to induce phosphorylation of extracellular-signal-related kinase (pERK) in HEK293-STAT3Luc-hLepR1 cells. To measure pERK induction, cells were first cultured overnight at 37° C. in 96-well plate with DMEM medium supplemented with 10% FBS. On day 2, medium was removed, cells were washed in serum-free DMEM and incubated for an additional 24-hour in serum-free DMEM. On day 3, medium was removed and 1:4 series dilutions of antibodies A, B, and C with top concentration of 200nM in serum-free DMEM were added to the cells for 15 minutes. Testing was run in duplicates. Recombinant human leptin protein (SEQ ID NO:27) was used as a positive control in this assay. An IgGI with Fc modifications to ablate binding to Fcγ receptors was used as a negative control (IgG isotype control). Phospho-ERK1/2 was assessed in the whole cell lysate by measuring the amplified luminescence with AlphaLISA SureFire Ultra p-ERK1/2 (Thr202/Tyr204) kit (PerkinElmer, #ALSU-PERK-A-HV). Data was calculated using 4 parameters sigmoidal fit of the data (SigmaPlot software). Results, expressed in Table 12 are averaged EC50 of two independent experiments.
(Bead proximity is the source of the signal in Alpha formats.)

The mark [3] stands for this setting: STAT3-luciferase, 20 hours, read-out: EC50 (nM) ± SEM.
The mark [4] stands for this setting: top of fitted curve vs response to 20 nM recombinant human leptin.

With “human leptin: recombinant human leptin protein (SEQ ID NO:27), positive control”, the concentration giving a half-maximal response (EC50) (as a rule, the concentration that produces a half-maximal response) in the test with human LEPR [1] (setting [3]) is 0.0491 ± 0.0044 nM; in the test on cyno-LEPR (setting [3]) it was 0.674 ± 0.11 nM; with human LEPR [2] (pERK, 15 minutes, average of two independent experiments, read-out: EC50 (nM) ± STDEV), 1.07 nM. The “Agonism (%) ± SEM” value with human LEPR [1] (setting [4]) is reported as 105.83%; with cyno-LEPR (setting [4]) it was 106.34%. Further, the “Baseline RLU” value with human LEPR [2] (pERK AlphaLISA) worked out at 29762.5 RLU. Besides, the “Maximum RLU” value in the test with human LEPR [2] (pERK AlphaLISA) is recorded as 137565 RLU.
